Source: patent publication US20040077045A1

Target: T1, HLA-DR13 (DRB1*1301), purified (human)
T1 chain 1: not shown
T1 chain 2: not shown
Test: competition on purified HLA-DR (DRB1*1301) against biotinylated B1 21-36 (200 nM, pH 4.5); fluorescence assay

- IC50: 390 nM
Binder: TERVRLVTRHIYNREE (modifications not checked) [B1 21-36 (…), unlabeled reference peptide]
